# Values of other authors as cited in paper PMC5100577.
# Molecular target: H2A-H2B dimer (Saccharomyces cerevisiae) (UniProt P04911)
# Experiment: fluorescence dequenching
# UniProt P04911, sequence (P04911 2-132, chain 1 of 2): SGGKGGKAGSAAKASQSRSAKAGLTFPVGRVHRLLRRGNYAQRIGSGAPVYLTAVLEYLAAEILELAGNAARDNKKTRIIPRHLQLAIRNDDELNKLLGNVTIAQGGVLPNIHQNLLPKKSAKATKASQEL
# UniProt P04911, sequence (P02293 2-131, chain 2 of 2, further chain): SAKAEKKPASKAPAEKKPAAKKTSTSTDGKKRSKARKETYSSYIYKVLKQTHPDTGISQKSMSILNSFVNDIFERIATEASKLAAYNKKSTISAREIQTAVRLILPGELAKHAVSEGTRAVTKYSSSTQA
substance,measurement,value
FACT (from UniProt P32558),Kd,21.4 nM
